Data published in PMC4430413.

Biological target: monomeric Uox conjugated to HSA (HSA-conjugated Uox-W160.174AzF subunit of Uox-HSA) (Aspergillus flavus | human) (UniProt P02768)
Assay: co-purification by ion exchange chromatography, read by SDS-PAGE

Chain of UniProt P02768 (P02768 whole entry, looked up): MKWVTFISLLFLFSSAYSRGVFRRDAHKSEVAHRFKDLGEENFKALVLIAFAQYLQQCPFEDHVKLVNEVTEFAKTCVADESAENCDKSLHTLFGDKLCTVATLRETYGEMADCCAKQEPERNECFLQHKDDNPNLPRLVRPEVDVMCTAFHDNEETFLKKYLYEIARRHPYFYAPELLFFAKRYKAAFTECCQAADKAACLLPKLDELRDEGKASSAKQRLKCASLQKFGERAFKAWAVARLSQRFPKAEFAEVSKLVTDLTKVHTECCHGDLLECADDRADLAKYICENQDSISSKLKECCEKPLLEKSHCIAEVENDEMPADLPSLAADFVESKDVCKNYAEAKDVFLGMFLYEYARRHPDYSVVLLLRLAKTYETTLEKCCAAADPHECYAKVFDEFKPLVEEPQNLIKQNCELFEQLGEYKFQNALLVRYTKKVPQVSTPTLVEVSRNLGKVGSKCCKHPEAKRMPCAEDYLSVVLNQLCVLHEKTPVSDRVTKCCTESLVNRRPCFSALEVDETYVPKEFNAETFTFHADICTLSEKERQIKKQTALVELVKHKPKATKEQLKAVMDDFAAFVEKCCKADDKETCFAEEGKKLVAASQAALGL

**Q.** How did the molar ratio of unreacted Uox monomer to monomeric Uox conjugated to HSA turn out when “AzF-incorporated urate oxidase (Uox-W160.174AzF) (enzyme)” was run?
**A.** 2.5
